Laboratory results published in patent publication US20210238279A1 (Johns Hopkins, published 2021).
Where a chain is given by its changes, count along the chain named.

Key:
Test in all cases: immunoblot of HEK293 lysates over-expressing FLAG-tagged ZnT homologs
[1] = target: T1, human ZnT2 with C-terminal FLAG tag (human, UniProt Q9BRI3 1-372, limits assumed)
T1 construct: Commercial HEK293 lysate (Origene), SDS-denatured on immunoblots; not shown: C-terminal FLAG octapeptide
T1 sequence (looked up): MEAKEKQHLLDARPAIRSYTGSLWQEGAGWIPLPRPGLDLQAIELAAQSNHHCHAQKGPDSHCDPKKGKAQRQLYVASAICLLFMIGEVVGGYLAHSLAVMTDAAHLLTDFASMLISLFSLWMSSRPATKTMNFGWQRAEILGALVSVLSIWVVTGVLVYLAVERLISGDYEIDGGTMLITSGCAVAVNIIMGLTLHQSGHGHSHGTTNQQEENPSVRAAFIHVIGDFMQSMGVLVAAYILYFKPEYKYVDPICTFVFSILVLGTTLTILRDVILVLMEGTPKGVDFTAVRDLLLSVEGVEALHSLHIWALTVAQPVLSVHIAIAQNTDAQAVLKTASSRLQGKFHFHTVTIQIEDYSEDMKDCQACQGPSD
Excerpt: (§1) FIG. 7A-7D. mAb binding specificities (FIG. 7A) mAb binding to ZnT8-His immobilized to Ni-NTA plate. Bound mAb20 (red) or mAb39 (magenta) was detected by an HRP-conjugated secondary antibody. Solid lines are least-squares fits of binding datapoints to a one-component binding process. Error bars are standard errors (n=8). (FIG. 7B) SDS-denatured mouse ZnT8-His (labeled as M) and human ZnT8-His (labeled as H) on immunoblots were detected by mAb20 or mAb39 as indicated. […] (FIG. 7C) Detection of endogenous human ZnT8 in EndoC-βH cells by mAb20 or […] immunoblotting. An equal amount of EndoC-βH lysate (5 μg total protein) was loaded to each lane. (FIG. 7D) Immunoblotting of HEK lysates with or with over-expression of a ZnT homolog as indicated. An approximately equal amount of total lysate protein (5 μg) was located to each lane, probed by either mAb20, mAb39, or anti-FALG antibody as indicated. FIG. 8. HTRF response to human ZnT8, mouse ZnT8 and human ZnT3.
(§2) Immunoblotting. SDS-solubilized cell lysate of EndoC-β cells or HEK293 cells over-expressing ZnT8 was subjected to SDS-PAGE and probed with a 1:3000 mAb20 or mAb39, followed by 1:3000 anti-mouse HRP-conjugated secondary antibody (GE Healthcare cat. #NA931V). A duplicated gel was Coomassie-stained to show an equal protein loading for each lane ([…]). To compare the mAb20 or mAb39 reactivities to different ZnT homolog, we used commercial HEK293 lysates with lentivirus-mediated over-expression of ZnT1, ZnT2, ZnT3, ZnT4, ZnT7, ZnT8, ZnT10, each is tagged by a Flag tag at the C-terminus (Origene, catalog nos. LY500001, LC412033, LC423751, LC401170, LY415673, LC428544, LC406320, and LC412886). Approximately equal amounts of total protein (5 μg) was loaded to each lane, and then probed with mAb20, mAb39, or anti-FLAG antibody (Origene, catalog no. TA50011-100) as above. The expression levels of ZnT homologs varied with ZnT1 most abundantly expressed.

[2] = target: T2, human ZnT1 with C-terminal FLAG tag (human, UniProt Q9Y6M5 1-507)
T2 construct: Commercial HEK293 lysate (Origene), SDS-denatured on immunoblots; not shown: C-terminal FLAG octapeptide
T2 sequence (looked up): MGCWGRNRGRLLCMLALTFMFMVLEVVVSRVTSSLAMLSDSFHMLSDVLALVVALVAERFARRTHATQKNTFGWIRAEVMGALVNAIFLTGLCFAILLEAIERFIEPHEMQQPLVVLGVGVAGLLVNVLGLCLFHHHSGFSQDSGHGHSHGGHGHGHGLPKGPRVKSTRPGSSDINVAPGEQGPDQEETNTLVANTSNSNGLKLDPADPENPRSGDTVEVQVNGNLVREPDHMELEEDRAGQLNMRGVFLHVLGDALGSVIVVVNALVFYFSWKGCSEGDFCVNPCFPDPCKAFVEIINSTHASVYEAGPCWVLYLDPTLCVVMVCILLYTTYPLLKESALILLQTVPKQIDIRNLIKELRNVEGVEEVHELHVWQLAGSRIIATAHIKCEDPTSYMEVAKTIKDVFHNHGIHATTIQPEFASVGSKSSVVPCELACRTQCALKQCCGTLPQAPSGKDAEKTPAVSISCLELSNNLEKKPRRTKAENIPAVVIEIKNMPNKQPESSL
Excerpt: as §1, §2

[3] = target: T3, human ZnT7 with C-terminal FLAG tag (human, UniProt Q8NEW0 1-376)
T3 construct: Commercial HEK293 lysate (Origene), SDS-denatured on immunoblots; not shown: C-terminal FLAG octapeptide
T3 sequence (looked up): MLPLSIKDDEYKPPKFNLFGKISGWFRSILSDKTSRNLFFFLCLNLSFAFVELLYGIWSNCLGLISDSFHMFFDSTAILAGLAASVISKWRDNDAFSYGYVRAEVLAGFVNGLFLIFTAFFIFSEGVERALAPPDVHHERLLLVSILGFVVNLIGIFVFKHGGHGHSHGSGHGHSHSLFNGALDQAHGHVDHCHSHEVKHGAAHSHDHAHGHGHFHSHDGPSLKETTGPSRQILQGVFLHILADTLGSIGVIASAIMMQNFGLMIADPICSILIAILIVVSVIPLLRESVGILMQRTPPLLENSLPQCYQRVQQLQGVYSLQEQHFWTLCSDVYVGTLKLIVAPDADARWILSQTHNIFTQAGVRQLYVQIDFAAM
Excerpt: as §1, §2

[4] = target: T4, human ZnT3 with C-terminal FLAG tag (human, UniProt Q99726 1-388)
T4 construct: Commercial HEK293 lysate (Origene), SDS-denatured on immunoblots; not shown: C-terminal FLAG octapeptide
T4 sequence (looked up): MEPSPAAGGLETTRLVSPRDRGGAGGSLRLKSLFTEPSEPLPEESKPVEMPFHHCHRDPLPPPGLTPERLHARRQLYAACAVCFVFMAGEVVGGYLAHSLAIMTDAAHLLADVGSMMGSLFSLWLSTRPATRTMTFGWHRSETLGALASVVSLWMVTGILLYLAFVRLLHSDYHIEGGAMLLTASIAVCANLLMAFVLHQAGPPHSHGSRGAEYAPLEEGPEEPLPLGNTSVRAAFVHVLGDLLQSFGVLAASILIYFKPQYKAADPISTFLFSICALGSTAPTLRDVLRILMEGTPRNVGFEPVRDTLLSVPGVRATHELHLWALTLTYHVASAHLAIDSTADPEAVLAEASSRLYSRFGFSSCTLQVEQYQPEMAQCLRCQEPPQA
Excerpt: as §1, §2

Measured: binding result

B1: mAb20 (antibody, V domains shown)
VH: QIQLVQSGPELKKPGETVKISCKASGYIFTNYPMHWVKQAPGKGLKWMGWINTYSGVPTHADDFKGRFAFSLETSANSAFLQINNLKNEDTATYFCTRSRITPTGGYAMDYWGQGTSVTVSS
VL: DVVMTQTPLSLPVSLGDQASISCRSSQSLVHSNGNTYLHWYLQKPGQSPNLLISKVSNRFSGVPERFSGSGSGTDFTLKISRVEAEDLGVYFCSQNTHVPWTFGGGTKLEIKR
notes: Mouse hybridoma mAb purified on protein A/G; In some assays it was labelled with Alexa Fluor 488 or terbium cryptate; also called monoclonal antibody mAb20; anti-ZnT8 mAb20
no binding: all assays above

B2: mAb39 (antibody, V domains shown)
VH: QVQLQQPGAELVKPGASVKLSCKASGYSFTTYWMHWVKQRPGQGLEWVGDINPRNGRTNYNEKSKSKATLTVDISSSTVYMQVSSLTSEDSAVYYCAIWSGAMDYWGPGTSVTVSS
VL: B1 VL with A19P, R24K, S32N, N50K, S54Y, E65D, N96T, W101P
notes: Mouse hybridoma mAb purified on protein A/G; In some assays it was labelled with Alexa Fluor 555 or d2; also called monoclonal antibody mAb39; anti-ZnT8 mAb39
no binding: all assays above
